Data as given in patent US20070207967A1, “Peptide Inhibitors of Matrix Metalloproteinase Activity” (CTT CANCER TARGETING TECHNOLOGIES OY, priority 2004, published 2007).

What was measured:
αM integrin I domain [1] = target: T1, αM integrin I domain (Homo sapiens, UniProt P11215); assay: Pro-MMP-9 binding to αM integrin I domain
Protocol: Pro-MMP-9 and gelatin binding to leukocyte αM integrin. Pro-MMP-9 binding to the αM I domain in the presence of peptides was studied as described (12). Gelatin binding to the pro-MMP-^9/αMβ2 integrin complex was studied by immobilizing the integrin αMβ2 (12) or αIIbβ3 as a control (Enzyme Research Laboratories, South Bend, Ind.) (1 μg/well) in TBS/1 mM CaCl2/1 mM MgCl2 followed by saturation of the wells with 1% BSA in PB ST. Pro-MMP-9 (100 ng/well) was incubated for 2 h and the unbound pro-MMP-9 was washed away. Biotinylated gelatin (2.5 μg/ml) was allowed to bind for 30 min at room temperature. Bound gelatin was detected with streptavidin-peroxidase.

pro-MMP-9 = pro-MMP-9 (Homo sapiens, UniProt P14780); assay: Pro-MMP-9 activation in THP-1 cells, zymography; assay type: cell-based; details: THP-1, pro-MMP-3 and plasminogen, peptides 200 μM
Protocol: Activation of MMP-9. THP-1 cells (40 000/100 μl) or confluent HT1080 cells were incubated for 16 h in the presence or absence of 2.5 μg/ml plasminogen, 0.5 μg/ml pro-MMP-3 (Oncogene Research Products), 40 nM PDBu, and the peptides at a 200 μM concentration unless otherwise indicated. Aliquots of the conditioned media were analyzed by gelatin zymography (9). […] The samples were analyzed by gelatin zymography.

αM integrin I domain [2] = target: T1, αM integrin I domain; details: ref (12); cited from earlier work
leukocytes = details: ref (12); cited from earlier work
neutrophil recruitment = details: acute inflammation model in mice; ref (48); cited from earlier work
[3] = system: β5 integrin-transfected CS-1 melanoma cells; assay: 125I-C domain binding to cells; assay type: cell-based, hamster; details: unlabelled proteins 50 μg/ml, peptides 50 μM
Protocol: ^125I-C domain binding to cells. The MMP-9 C domain was labelled with ^125I to a specific activity 0.06 μCi/pmol. The labelled domain retained 40% of the CRV peptide-binding activity as shown by the phage-binding assay. […] After a preincubation of 1.5×10^6 cells in a 200 μl volume on ice for 30 min with the competitors, ^125I-labelled C domain (1×10^6 cpm) was added and incubated for three hours on ice. The cells were transferred to tubes containing 200 μl of dibutyl phthalate/cyclohexane mixture (23:2 vol/vol), centrifuged 7500×g for 10 minutes and snap-frozen (24). The bottom of the tube containing the cells were cut and analyzed with a gamma-counter.

T1 sequence (P11215 150-328 limits assumed): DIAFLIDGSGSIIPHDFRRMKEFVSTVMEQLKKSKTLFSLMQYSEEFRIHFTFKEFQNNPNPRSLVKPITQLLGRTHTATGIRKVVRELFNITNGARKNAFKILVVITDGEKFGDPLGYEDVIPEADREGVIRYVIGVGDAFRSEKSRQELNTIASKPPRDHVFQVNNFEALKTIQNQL
Sequence of pro-MMP-9 (P14780 20-707 limits assumed): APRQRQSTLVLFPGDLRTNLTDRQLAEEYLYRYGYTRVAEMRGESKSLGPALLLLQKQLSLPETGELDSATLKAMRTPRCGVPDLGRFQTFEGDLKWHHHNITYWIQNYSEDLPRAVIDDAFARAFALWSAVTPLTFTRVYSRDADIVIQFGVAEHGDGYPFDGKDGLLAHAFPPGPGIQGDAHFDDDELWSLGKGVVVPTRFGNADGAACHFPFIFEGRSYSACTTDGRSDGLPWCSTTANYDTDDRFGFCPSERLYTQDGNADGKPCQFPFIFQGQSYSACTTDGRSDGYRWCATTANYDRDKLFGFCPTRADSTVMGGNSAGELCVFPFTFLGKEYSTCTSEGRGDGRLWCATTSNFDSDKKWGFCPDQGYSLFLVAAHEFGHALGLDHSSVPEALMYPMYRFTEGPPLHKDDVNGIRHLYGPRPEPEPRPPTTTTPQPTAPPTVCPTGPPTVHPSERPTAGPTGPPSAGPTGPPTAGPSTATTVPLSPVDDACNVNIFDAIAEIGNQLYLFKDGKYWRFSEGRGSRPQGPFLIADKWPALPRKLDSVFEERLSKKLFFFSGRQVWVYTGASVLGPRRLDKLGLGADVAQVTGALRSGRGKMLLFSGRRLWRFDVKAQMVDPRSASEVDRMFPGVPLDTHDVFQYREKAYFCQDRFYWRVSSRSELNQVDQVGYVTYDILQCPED

| Effect on interaction of MMP-9 with the leukocyte αM integrin I domain (αM integrin I domain [1]) | Effect on pro-MMP-9 activation (pro-MMP-9) | Substance | Competition with pro-MMP-9 binding to I domain of αM integrin subunit (αM integrin I domain [2]) | Inhibition of migration of leukocytes (leukocytes) | Inhibition of neutrophil recruitment (neutrophil recruitment) | Competition of 125I-labelled MMP-9 C domain binding to β5 integrin-transfected CS-1 cells [3] |
| --- | --- | --- | --- | --- | --- | --- |
| blocked | augmented | ADGACILWMDDGWCGAAG | competed | inhibited migration of leukocytes | active in vivo inhibiting neutrophil recruitment |  |
|  |  | GRGDSP [reference compound] |  |  |  | No competition |
